Experimental data from publication PMC12487888, “Molecular basis of the biogenesis of a protein organelle for ethanolamine utilization” (Science Advances, 2025).

B3: EutL-strep (natural protein, S. Typhimurium LT2, UniProt P0A1C9 1-219, looked up)
chain: MPALDLIRPSVTAMRVIASVNDGFARELKLPPHIRSLGLITADSDDVTYIAADEATKQAMVEVVYGRSLYAGAAHGPSPTAGEVLIMLGGPNPAEVRAGLDAMVASIENGAAFQWANDAENTAFLAHVVSRTGSYLSSTAGIALGDPMAYLVAPPLEATFGIDAAMKSADVQLVTYVPPPSETNYSAAFLTGSQAACKAACNAFTDAVLDIARNPVQRA
notes: shell protein EutL of S. Typhimurium LT2; the eutL gene was inserted into pET-22b (+); not shown: Strep tag, C-terminal, kept

What was measured:
Conditions in all cases: both partners purified
EutQ-strep = molecular target: T1, EutQ-strep (S. Typhimurium LT2, UniProt Q9ZFV5 1-229); assay: MST; His-tagged target protein labelled with dye, 0.25 μM; unlabelled strep-tagged protein in twofold dilution series (EutL up to 24 μM, EutQ up to 108 μM); Monolith NT.115, 25°C, 60% excitation power
T1 construct: EutQ of S. Typhimurium LT2; the eutQ gene was inserted into pET-22b (+); source: E. coli BL21(DE3), purified (Strep-tag XT, gel filtration); not shown: Strep tag, C-terminal, kept
T1 sequence: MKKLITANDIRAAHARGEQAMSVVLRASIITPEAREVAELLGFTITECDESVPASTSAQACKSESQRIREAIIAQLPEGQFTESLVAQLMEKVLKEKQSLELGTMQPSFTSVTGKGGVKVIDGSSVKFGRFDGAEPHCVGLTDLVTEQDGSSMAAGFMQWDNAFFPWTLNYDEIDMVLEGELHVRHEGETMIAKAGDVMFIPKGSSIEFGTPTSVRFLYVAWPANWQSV

EutL-strep = molecular target: B3; assay: as above
[1] = molecular target: T2, EutQ N-terminal domain fused with GB1 at its C terminus (EutQ^1–99-GB1) (S. Typhimurium LT2, UniProt Q9ZFV5 1-99); assay: ITC; 20 μM protein in the cell, 200 to 400 μM peptide in the syringe; 19 injections, 25°C; 20 mM Na2HPO4, 20 mM NaCl, pH 6.5
T2 construct: EutQ of S. Typhimurium LT2, N-terminal region, residues 1-99 (helices H1 to H4); Cloned into pETM11; Order of the chain: EutQ 1-99, hexahistidine tag, GB1; Uniformly 15N-labelled (15N, 13C for assignment) for NMR; also called N-terminal region of EutQ; source: E. coli BL21 (DE3) star, purified (His-trap, SEC on S200 Superdex)
T2 sequence: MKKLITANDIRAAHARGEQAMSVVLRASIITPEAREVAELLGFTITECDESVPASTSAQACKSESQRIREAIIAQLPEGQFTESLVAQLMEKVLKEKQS

EutQ (residues 1 to 229) = molecular target: T3, EutQ (residues 1 to 229) (S. Typhimurium LT2, UniProt Q9ZFV5 1-229); assay: as above
T3 construct: About 25 kDa per monomer, about 50 kDa dimer by SEC-MALS; Uniformly 15N-labelled for NMR; also called full-length EutQ; WT EutQ; source: E. coli BL21 (DE3) star, purified (His-trap, SEC on S200 Superdex)
T3 sequence: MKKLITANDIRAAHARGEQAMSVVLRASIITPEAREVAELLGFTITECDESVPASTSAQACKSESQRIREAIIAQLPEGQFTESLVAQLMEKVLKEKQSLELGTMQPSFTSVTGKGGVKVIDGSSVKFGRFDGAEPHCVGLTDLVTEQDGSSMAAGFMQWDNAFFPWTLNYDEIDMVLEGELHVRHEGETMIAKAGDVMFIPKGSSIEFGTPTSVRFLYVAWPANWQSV

EutQ Q75A = molecular target: T4, EutQ Q75A (S. Typhimurium LT2, UniProt Q9ZFV5 1-229, Q75A); assay: ITC; point mutants of EutQ against EutC^1–20 (figs. S25 and S26); the method is not given, the Kd is compared with the ITC Kd of WT EutQ
T4 construct: EutQ of S. Typhimurium LT2 with the point mutation Q75A; also called Q75A mutant
T4 sequence: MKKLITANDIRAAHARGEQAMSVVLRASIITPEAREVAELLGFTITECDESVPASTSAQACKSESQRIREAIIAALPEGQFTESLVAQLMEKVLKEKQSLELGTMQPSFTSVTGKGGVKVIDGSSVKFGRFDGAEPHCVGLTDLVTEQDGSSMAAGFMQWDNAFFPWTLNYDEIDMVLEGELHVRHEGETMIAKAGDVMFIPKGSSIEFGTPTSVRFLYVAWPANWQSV

EutQ-his = molecular target: T5, EutQ-his (S. Typhimurium LT2, UniProt Q9ZFV5 1-229, dye on the His tag (His-tagged target proteins were labelled with dyes)); assay: MST; His-tagged target protein labelled with dye, 0.25 μM; unlabelled strep-tagged protein in twofold dilution series (EutL up to 24 μM, EutQ up to 108 μM); Monolith NT.115, 25°C, 60% excitation power
T5 construct: EutQ of S. Typhimurium LT2; the eutQ gene was inserted into pET-22b (+); source: E. coli BL21(DE3), purified (Ni-NTA, gel filtration); not shown: His tag, C-terminal, kept
T5 sequence (looked up): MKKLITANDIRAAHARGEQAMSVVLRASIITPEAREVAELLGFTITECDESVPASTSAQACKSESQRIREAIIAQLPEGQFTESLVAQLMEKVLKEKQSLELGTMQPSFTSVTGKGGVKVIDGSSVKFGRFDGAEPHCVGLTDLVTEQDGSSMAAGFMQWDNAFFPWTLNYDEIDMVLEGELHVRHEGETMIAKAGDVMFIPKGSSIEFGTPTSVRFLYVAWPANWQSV

B1: EutM-his (natural protein)
chain: MEALGMIETRGLVALIEASDAMVKAARVKLVGVKQIGGGLCTAMVRGDVAACKAATDAGAAAAQRIGELVSVHVIPRPHGDLEEVFPISFKGDSNI
modifications: dye on the His tag (His-tagged target proteins were labelled with dyes)
notes: shell protein EutM of S. Typhimurium LT2; the eutM gene was inserted into pET-22b (+); source: E. coli BL21(DE3), purified (Ni-NTA, gel filtration); not shown: His tag, C-terminal, kept
Q: Does B1 bind (EutQ-strep)?
A: binds

Q: Does B1 bind (EutL-strep)?
A: binds

B2: EutC^1–20 encapsulation peptide (peptide)
peptide: MDQKQIEEIVRSVMASMGQD
notes: EutC of S. Typhimurium LT2, N-terminal encapsulation peptide, residues 1-20; also called EutC peptide; EP of EutC; source: synthetic peptide (GenicBio)
Q: With B2 as the binder, how does the Kd [1] read?
A: 7.6 µM

Q: And the dH [1]?
A: -9.63 ± 0.48 kcal/mol

Q: And the “stoichiometry N” value [1]?
A: ~1

Q: What about the Kd (EutQ (residues 1 to 229)) of the same binder?
A: 6.35 µM

Q: And the dH (EutQ (residues 1 to 229))?
A: -9.24 ± 0.01 kcal/mol

Q: And the “stoichiometry N” value (EutQ (residues 1 to 229))?
A: ~2

Q: What about the Kd (EutQ Q75A) of the same binder?
A: 21.5 µM

Q: Does B3 bind (EutQ-his)?
A: binds
